One data set concerns the target UAF1 (WDR48) (UniProt Q8TAF3 Q8TAF3:1-677). Kind of data set: EMSA; 300 nM UAF1. Particulars: tags: SF9-made or R&D systems E566, label: Cy3. Here is the method:
(§1) Recombinant USP1 and UAF1 proteins from R&D systems (E564, E566) were used for some electromobility shift assays and in vitro deubiquitination assays. Electromobility shift assays were performed by pre-incubating fluorophore (Cy3)-tagged DNA and purified protein in binding buffer (20 mM Hepes (pH 7.6), 0.1M KCl, 5 mM MgCl2, 3% (v/v) glycerol, 0.25 mg/ml BSA, 0.05 mM EDTA, 0.5 mM DTT, 0.01% (v/v) NP-40) for 30 min on ice. Samples were then loaded onto 6% polyacrylamide gels and ran at 65V in 0.5× TBE for 135 min at 4° C. Gels were visualized using the LAS-4000 imaging system (GE Healthcare Life Sciences, Pittsburgh, Pa.). DNA used for Ub-AMC, Ub-CHOP2 and electromobility shift assay were 40 bp in length and were designed to have minimal potential of secondary structure formation. The sequences are as follows:
(§2) Since UAF1 has DNA binding activity, USP1 might also bind DNA and thereby stabilize replication forks. To test this hypothesis, DNA gel shift assays were performed with purified UAF1 protein with or without purified USP1 protein to analyze direct DNA binding activity. Purified proteins were incubated with either single strand DNA, double strand DNA, or fork DNA. The UAF1 protein and the USP1/UAF1 complex generated a reproducible gel shift of all three DNA templates.

The target of another data set is USP12 (UniProt O75317 SEQ:1-370). The data set can be described thus: EMSA; 300 nM USP12. The note with it: label: Cy3. On the procedure:
as §1
USP1, USP12, and USP46 are related DUB proteins which bind and are stimulated by UAF1 (20, 23, 24, 31, 32). All three proteins contain a conserved UAF1 binding site, localized to a zinc finger region of each polypeptide (FIG. 10A). These USPs bind to a discrete WD40 domain of UAF1 (23, 24). Of the three proteins, USP1 is the largest protein, as shown by the sequence alignment with USP12 and USP46 (FIG. 10C).

A further data set has as its target T1, USP1 (UniProt O94782 SEQ:1-770).
T1 sequence: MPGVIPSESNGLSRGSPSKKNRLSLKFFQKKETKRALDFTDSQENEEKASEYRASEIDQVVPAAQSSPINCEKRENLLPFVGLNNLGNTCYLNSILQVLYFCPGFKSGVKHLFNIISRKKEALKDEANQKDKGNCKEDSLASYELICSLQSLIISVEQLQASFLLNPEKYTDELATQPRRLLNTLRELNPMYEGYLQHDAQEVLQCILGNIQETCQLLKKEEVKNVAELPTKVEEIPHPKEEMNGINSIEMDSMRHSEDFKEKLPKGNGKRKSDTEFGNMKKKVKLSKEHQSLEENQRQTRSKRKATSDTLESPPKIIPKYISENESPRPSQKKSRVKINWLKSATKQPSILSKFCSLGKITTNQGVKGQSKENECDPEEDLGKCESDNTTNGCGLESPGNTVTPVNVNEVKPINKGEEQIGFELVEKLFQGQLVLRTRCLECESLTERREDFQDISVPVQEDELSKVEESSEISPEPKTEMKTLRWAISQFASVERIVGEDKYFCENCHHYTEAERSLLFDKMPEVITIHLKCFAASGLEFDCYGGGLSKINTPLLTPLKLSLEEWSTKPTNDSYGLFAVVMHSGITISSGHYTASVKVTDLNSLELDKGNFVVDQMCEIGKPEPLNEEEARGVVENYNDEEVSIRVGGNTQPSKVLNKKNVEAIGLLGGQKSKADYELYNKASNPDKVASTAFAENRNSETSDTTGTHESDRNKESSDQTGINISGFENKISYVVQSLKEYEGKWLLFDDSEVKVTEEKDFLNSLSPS
Kind of data set: EMSA; 300 nM USP1; strongest shift; 5 mM MgCl2, 0.1 M KCl, on ice; not disrupted by ML323 (FIG. 11C). The note with it: tags: SF9-made or R&D systems E564; label: Cy3; fork with non-complementary single-stranded arms. Here is the method: as §1, §2

Another data set concerns the target USP1/UAF1 complex (UniProt O94782;Q8TAF3 O94782:1-785,Q8TAF3:1-677). The data set can be described thus: EMSA; 100 nM USP1 + 300 nM UAF1. Particulars: tags: SF9-made, R&D systems or Boston Biochem, label: Cy3. On the procedure:
as §1, §2

[1] abbreviates: fork with non-complementary single-stranded arms.

Chain of USP1/UAF1 complex (Q8TAF3 whole entry, one chain of several): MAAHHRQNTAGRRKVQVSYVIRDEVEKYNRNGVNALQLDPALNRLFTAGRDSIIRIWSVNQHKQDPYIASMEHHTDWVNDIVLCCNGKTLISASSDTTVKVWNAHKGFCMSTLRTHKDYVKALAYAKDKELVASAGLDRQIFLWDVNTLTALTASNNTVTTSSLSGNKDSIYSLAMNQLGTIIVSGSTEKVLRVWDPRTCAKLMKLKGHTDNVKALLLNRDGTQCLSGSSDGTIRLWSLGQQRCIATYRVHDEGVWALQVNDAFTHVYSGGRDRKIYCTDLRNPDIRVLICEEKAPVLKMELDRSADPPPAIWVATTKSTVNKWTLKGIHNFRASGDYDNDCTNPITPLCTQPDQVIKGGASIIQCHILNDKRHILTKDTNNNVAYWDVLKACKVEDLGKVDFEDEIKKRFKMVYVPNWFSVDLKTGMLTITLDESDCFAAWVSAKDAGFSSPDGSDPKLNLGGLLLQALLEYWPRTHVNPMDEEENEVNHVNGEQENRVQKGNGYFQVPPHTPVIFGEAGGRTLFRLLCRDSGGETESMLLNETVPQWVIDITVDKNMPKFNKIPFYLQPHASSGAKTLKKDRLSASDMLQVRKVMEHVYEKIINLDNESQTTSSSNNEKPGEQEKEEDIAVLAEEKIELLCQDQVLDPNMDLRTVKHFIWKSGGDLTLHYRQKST
Chain of UAF1 (WDR48) (Q8TAF3 whole entry, one chain of several): as above
Chain of USP12 (O75317 whole entry): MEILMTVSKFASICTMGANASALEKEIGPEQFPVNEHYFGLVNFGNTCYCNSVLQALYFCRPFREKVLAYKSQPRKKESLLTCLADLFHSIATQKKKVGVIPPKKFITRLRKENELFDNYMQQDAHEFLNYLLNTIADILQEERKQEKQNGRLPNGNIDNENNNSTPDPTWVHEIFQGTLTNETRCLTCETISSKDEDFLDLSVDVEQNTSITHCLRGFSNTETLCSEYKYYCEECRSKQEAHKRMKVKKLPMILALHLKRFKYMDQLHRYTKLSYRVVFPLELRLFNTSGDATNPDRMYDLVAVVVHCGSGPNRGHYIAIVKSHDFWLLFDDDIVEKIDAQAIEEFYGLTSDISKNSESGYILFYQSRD

B1: 40-mer fork DNA (structured_DNA)
DNA 1: CCAGTGAATTGTTGCTCGGTACCTGCTAACGGTAATCGG
DNA 2: CAGCTATGGGACATTCGATACCGAGCAACAATTCACTGG
Regarding B1, the binding result with UAF1 (WDR48) (setting [1]) is on record as “binds”; in the data set with USP12 (setting [1]) it was “no binding”; with USP1 it was “binds”; with USP1/UAF1 complex (setting [1]), “binds”.

B2: 40-mer dsDNA (dsDNA)
DNA 1: B1 DNA 1
DNA 2: CCGATTACCGTTAGCAGGTACCGAGCAACAATTCACTGG
With B2, the binding result with UAF1 (WDR48) is listed as “binds”; with USP12, “no binding”; with USP1/UAF1 complex, “binds”.

CCAGTGAATTGTTGCTCGGTACCTGCTAACGGTAATCGG (ssDNA) [40-mer ssDNA (top)]: the binding result in the data set with UAF1 (WDR48) is “binds”; with USP12, “no binding”; in the data set with USP1/UAF1 complex, “binds”.

Source of the values: patent publication US20210186964, “METHODS OF TREATING CANCERS” (Dana-Farber Cancer Institute, Inc., published 2021).
